Assay [1] concerns the target T1, murine GFAP (in murine brain extracts and mouse brain astrocytes) (murine, UniProt P03995 1-430).
T1 construct: Endogenous intracellular protein; identified on blots by the 46 kDa band size and in tissue by astrocyte labelling; also called 46 Kda band
As to the kind of experiment: Western blot of murine brain extracts. As to the method: Murine brain proteins (300 mg) were extracted in a potter with 600 μl of NuPage LDS sample buffer (Invitrogen) and kept for […] at 70° C. An aliquot was diluted 1:10 (v/v) with the same sample buffer then treated at 70° C. for 10 min. Following separation by polyacrylamide gel electrophoresis (PAGE) using NuPAGE Novex 4-12% Bis-tris gel (Invitrogen), semi-dry transfer onto Hybond-C (Amersham) and western blotting were carried out using the Xcell II blot module (Invitrogen). Prior to the immunochemical reaction, membranes were blocked in a 4% skimmed milk solution. […] Finally, peroxidase activity was visualized using a chemiluminescent kit (Amersham).
The specificity of the different VHHs was tested by ELISA and by Western blot. All the VHHs were specific for GFAP by ELISA (FIG. 5) and could detect at least 40 ng of protein.
A general note: A western blot detects proteins with antibodies after separation by electrophoresis.

Assay [2] has as its target T2, GFAP (glial fibrillary acidic protein) from normal human brain (human, UniProt P14136 1-432).
T2 construct: Purchased protein purified from human brain; coated on ELISA plates and used in solution for the KD determination; also called hGFAP
As to the kind of experiment: competition ELISA in solution (Friguet method), GFAP in solution, GFAP-coated plate. How it is done: (§1) The binding affinity of VHHs was determined as described by Friguet et al., 1985. Briefly, various concentrations of GFAP were incubated in solution overnight at 4° C. with a known quantity of VHH until equilibrium was reached. The VHH concentration had been determined by preliminary ELISA calibrations. 100 μl of solution was transferred to a well of a microtiter plate previously coated with GFAP and was incubated for 20 min at 4° C. The plates were washed with PBS-Tween 0.1%. VHHs were detected with rabbit anti-His tag antibodies (eBiosciences, San Diego, Calif.) followed by adding β-galactosidase-conjugated goat anti-rabbit Igs (Biosys, Compiègne, France) and 4-methylumbelliferyl β-D galactoside (Sigma Aldrich, Saint-Quentin Fallavier, France). Fluorescence was read at 460 nm, after excitation at 355 nm. KD was estimated from the slope of the regression curve obtained by plotting the reciprocal of the fraction of bound antibody versus the reciprocal of the molar concentration of antigen.
(In an ELISA, binding on a coated surface is turned into a signal by an enzyme label.)

Assay [3] has as its target T2, GFAP (glial fibrillary acidic protein) …. As to the kind of experiment: competition ELISA (Friguet method) after heating VHH at 75 C for 15 min and cooling at 4 C for 20 min. As to the method: as §1
The heat denaturation of VHH-E9 was adapted to the method described in Olichon et al., 2007. VHHs are re-suspended in PBS/NaCl 300 mM and are heated for 15 minutes at 75° C. then cooled down at 4° C. for 20 minutes. The binding affinity of VHHs was determined by ELISA as described in Example 2 above.

The target is the same in assay [4]. As to the kind of experiment: competition ELISA (Friguet method), GFAP.

The values below come from patent publication US20100021384A1 (INSTITUT PASTEUR, published 2010).

T2 sequence (P14136 whole entry): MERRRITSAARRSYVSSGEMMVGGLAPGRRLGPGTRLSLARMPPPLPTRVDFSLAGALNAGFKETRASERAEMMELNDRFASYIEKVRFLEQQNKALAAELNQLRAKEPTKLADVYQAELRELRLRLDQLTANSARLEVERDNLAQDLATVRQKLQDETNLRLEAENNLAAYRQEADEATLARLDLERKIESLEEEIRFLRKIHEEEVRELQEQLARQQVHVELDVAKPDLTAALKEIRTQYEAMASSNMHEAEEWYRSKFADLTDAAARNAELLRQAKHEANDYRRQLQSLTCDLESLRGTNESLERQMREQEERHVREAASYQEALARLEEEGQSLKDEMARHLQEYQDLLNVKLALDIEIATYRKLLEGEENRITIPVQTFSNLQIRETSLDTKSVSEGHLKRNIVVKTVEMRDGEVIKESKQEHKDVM
T1 sequence (P03995 whole entry): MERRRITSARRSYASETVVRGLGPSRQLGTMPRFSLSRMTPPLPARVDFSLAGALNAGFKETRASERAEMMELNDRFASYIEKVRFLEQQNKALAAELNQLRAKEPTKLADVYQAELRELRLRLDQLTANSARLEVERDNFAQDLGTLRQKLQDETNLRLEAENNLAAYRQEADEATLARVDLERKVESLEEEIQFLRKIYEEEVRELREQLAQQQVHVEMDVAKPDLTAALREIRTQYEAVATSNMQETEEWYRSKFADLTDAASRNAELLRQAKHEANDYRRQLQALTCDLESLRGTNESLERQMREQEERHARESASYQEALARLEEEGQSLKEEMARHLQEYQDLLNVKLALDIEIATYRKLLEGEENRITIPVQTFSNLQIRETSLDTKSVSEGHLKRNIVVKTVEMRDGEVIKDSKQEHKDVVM

B1: VHH-E9 (VHH)
VHH: DVQLQVSGGGSVQPGGSLRLSCAASGFTFSNYAMYWLRQAPGKGIEWVSRIGPGGSHTEYADSVKGRFTISRDNAKNTLSLQMNSLKPEDTAVYYCAITQQGSGRGQGTQVTVSS
notes: Alpaca VHH selected by ribosome display against human GFAP; expressed in E. coli periplasm from pET22 with a His-tag and purified by IMAC; same molecule; also called anti-GFAP VHH-E9; native VHH-E9; not shown: His-tag (His6) from pET22 expression
One may read the Kd as a measure of binding affinity in units of concentration. The low end stands for higher affinity, the high end for lower affinity. Take B1: the binding result in assay [1] is “binds”. For the same molecule, the Kd in assay [2] is 5.6 nM; in assay [3], 3.8 nM.

B2: VHH-E9 SS-free (VHH, not shown: small tags and cut ends)
VHH: DVQLQVSGGGSVQPGGSLRLSSAASGFTFSNYAMYWLRQAPGKGIEWVSRIGPGGSHTEYADSVKGRFTISRDNAKNTLSLQMNSLKPEDTAVYYSAITQQGSGRGQGTQVTVSSAAALEHHHHHH
notes: VHH-E9 in which the disulfide-forming cysteines Cys 22 and Cys 96 were replaced by serine by site-directed mutagenesis; also called cysteine-free derivative of VHH-E9
In the case of B2, in assay [4], the Kd was 12 nM and the “fold reduction of affinity against native VHH-E9” value is 2 fold.

B3: VHH-E3 (VHH)
VHH: DVQLQVSGGGSVQPGGSLRLSCAAPGFTFSNYAMYWLRQAPGKGIEWVSRIGPGGSHTEYADSVKGRFAISRDNAKNTLSLQMNSLKPEDTAAYYCAITQQGSGRGRGTQVTVSS
notes: Alpaca VHH selected by ribosome display against human GFAP; expressed in E. coli periplasm from pET22 with a His-tag and purified by IMAC; also called anti-GFAP VHH-E3; not shown: His-tag from pET22 expression
For the molecule B3, the binding result in assay [1] is reported as “binds”.

B4: VHH-A10 (VHH)
VHH: DVQLRASGGGLVQPGGSLRLSCAASGFTFSNYAMYWLRQAPGKGIEWVSRIGPGGSHTEYADSVKGRFTISRDNAKNTLSLQMNSLKPEDTAVYYCAITQQGSGRGQETQVTVSSAAALEHHHHHH
notes: Alpaca VHH selected by ribosome display against human GFAP; expressed in E. coli periplasm from pET22 with a His-tag and purified by IMAC; also called anti-GFAP VHH-A10; not shown: His-tag from pET22 expression
As for B4, the binding result in assay [1] is listed as “binds”. Further, the Kd in assay [2] is 3.1 nM.
